From publication PMC11474037

Biological target: insulin receptor (purified IR, consisting of α and β subunits) (human (cloned from HEK293T cells)) (UniProt P06213)
Experiment: SPR

HtB-mNG (insulin B chain fused to mNeonGreen) (domain or fragment)
Kd: 3.33 µM
